Source: article PMC3511531, “Structural Requirements for the Procoagulant Activity of Nucleic Acids”

Molecular target: high molecular weight kininogen (single-chain) (UniProt P01042 19-644)
Assay: microtiter plate binding assay (streptavidin-peroxidase); Proteins coated at 10 ug/mL in 100 mM sodium carbonate pH 9.5 (4 C, 20 h); blocked with TBS + 3% BSA; biotinylated DNA 0.31-50 ug/mL, 22 C, 2 h; TBS washes; binding buffer composition and pH not stated
Settings: protein: commercial; hairpin, blunt-ended

Sequence of high molecular weight kininogen (single-chain) (P01042 19-644): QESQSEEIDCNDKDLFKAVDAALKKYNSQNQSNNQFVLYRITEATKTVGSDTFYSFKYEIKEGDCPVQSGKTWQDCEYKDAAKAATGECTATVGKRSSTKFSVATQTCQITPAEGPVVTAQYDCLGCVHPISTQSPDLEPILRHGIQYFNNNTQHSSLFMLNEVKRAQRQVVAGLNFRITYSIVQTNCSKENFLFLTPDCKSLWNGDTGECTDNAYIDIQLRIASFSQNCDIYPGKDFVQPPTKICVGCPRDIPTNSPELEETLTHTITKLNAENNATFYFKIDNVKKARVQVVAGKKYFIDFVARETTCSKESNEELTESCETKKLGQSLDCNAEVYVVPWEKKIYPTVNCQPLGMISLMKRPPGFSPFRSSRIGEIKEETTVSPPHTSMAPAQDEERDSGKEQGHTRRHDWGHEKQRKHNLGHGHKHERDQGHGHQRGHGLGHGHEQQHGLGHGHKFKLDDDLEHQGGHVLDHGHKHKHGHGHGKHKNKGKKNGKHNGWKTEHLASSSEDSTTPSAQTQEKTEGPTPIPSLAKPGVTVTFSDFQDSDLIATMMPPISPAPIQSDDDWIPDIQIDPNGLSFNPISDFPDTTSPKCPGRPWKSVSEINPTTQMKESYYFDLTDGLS

GGGAATGGGTATTCCCATCCC (structured_DNA) [21mer-H1 DNA]
Kd: 1820 ± 230 nM
